The values below come from patent US20020147146A1.

Data set [1] concerns T1, 9CREB ILSRRPSYR (non-phosphorylated peptide).
T1 sequence: ILSRRPSYR

Data set [2] has as its system T2, peptide #2 KRREILSRRPSYR (non-phosphorylated CREB peptide).
T2 sequence: KRREILSRRPSYR

Data set [3] deals with T3, peptide #4 ILSRRPEYR (9ECREB).
T3 sequence: ILSRRPEYR

Data set [4] deals with T4, peptide #3 ILSRRPS(p)YR (p9CREB).
T4 sequence: ILSRRPSYR

Data set [5] concerns T5, peptide #1 KRREILSRRPS(p)YR (derived from CREB protein).
T5 sequence: KRREILSRRPSYR

The target in data set [6] is purified recombinant rabbit GSK-3 (glycogen synthase kinase-3) (rabbit). The data set is described as follows: cell-based or functional assay.
For data set [7] the target is unchanged. The data set is described as follows: in vitro kinase assay of purified GSK-3 with PGS-1 substrate and 32P-ATP, Lineweaver-Burk analysis (competitive inhibition).

Non-standard residues stand in square brackets, D forms with d. No end group written: not given here. pS = N[C@@H](COP(=O)(O)O)C(=O)O

With “purified recombinant rabbit GSK-3 (glycogen synthase kinase-3)”, the “time course of peptide phosphorylation by GSK-3” value was 9CREB and 9ECREB completely failed to be phosphorylated by GSK-3 in data set [1]; 9CREB and 9ECREB completely failed to be phosphorylated by GSK-3 in data set [3]; “only the phosphorylated peptide, p9CREB, was a substrate for GSK-3” in data set [4]. Moreover, the “kinetic property (phosphorylation by GSK-3)” value in data set [2] is “Not a substrate”; in data set [4], “A substrate”; in data set [5], “A substrate”.

B1: peptide #7 …(p)P (patterned after HSF-1 protein) (peptide)
peptide: KEEPPAPPQ[pS]P
As for B1, the IC50, inhibition of GSK-3 (in vitro kinase assay) in data set [6] stood at 250 µM.

B2: peptide #8 …(p)P (peptide)
peptide: KEAPPAPPQ[pS]P
The term Ki denotes a dissociation constant, usually derived from enzyme kinetics or from competition with a known ligand. As to B2, in data set [6], the IC50, inhibition of GSK-3 (in vitro kinase assay) is 190 µM. Further, the inhibition constant Ki in data set [7] is 76 µM.

B3: peptide #5 …(p)YR (peptide)
peptide: KRREILARRP[pS]YR
With B3, in data set [6], the IC50, inhibition of GSK-3 (in vitro kinase assay) amounted to 330 µM and the IC50, inhibition of GSK-3 phosphorylation of PGS-1 substrate (32P incorporation) turned out to be 150 µM.
